Assay: soluble on expression in E. coli; label from the status in PepcDB or PDB records

Sequence | soluble on expression in E. coli
MNDRYTNVKIGLEIHVQLSNAGSKLFCGCDSEYRGYKPNTNVCPVCLGLPGALPVPSRRPIVLAIAASMALGCRVPGTVVFTRKHYFYPDLPKNYQITQFEKAGGAPVCMGGVLEYLNTDSWRWERARIRRINLEEDPGKTYYEGSILTSRYALVDYNRSGVPLLEIVTEPDIPSPRHARMLIDYLLLTLEYIGATNPRLEGVFRVDANISIEGGERVEVKNIGSTQDVEKALKFEISRQRLIVERGGKVERETRHWDAERGMTKPLRLKEEEADYLYFPDPDLPPVEITEDMLAEAEKLASKTPGTIYREIESMGVRREIAWSITSTLPAARLFLEAVKLGADPRIAARLVGVDLKGELKEMGKDLYSPNNWPPPQSIAILSNLVARGDYTYDSIKGLVVPKLAANPGSDVKSLLPEKVKDIERLVEEVLNREKRAVQDYLAGKKKALNYLVGQVMRAAKGRALDPRQAREILLRRLSTVKEEDR | soluble
GSRSEPAKVVDIRIDTSAERKPISPYIYGSNQELDATVTAKRFGGNRTTGYNWENNFSNAGSDWLHYSDTYLLEDGGVPKGEWSTPASVVTTFHDKALSKNVPYTLITLQAAGYVSADGNGPVSQEETAPSSRWKEVKFEKGAPFSLTPDTEDDYVYMDEFVNYLVNKYGNASTPTGIKGYSIDNEPALWSHTHPRIHPDNVTAKELIEKSVALSKAVKKVDPYAEIFGPALYGFAAYETLQSAPDWGTEGEGYRWFIDYYLDKMKKASDEEGKRLLDVLDVHWYPEARGGGERICFGADPRNIETNKARLQAPRTLWDPTYIEDSWIGQWKKDFLPILPNLLDSIEKYYPGTKLAITEYDYGGGNHITGGIAQADVLGIFGKYGVYLATFWGDASNNYTEAGINLYTNYDGKGGKFGDTSVKCETSDIEVSSAYASIVGEDDSKLHIILLNKNYDQPTTFNFSIDSSKNYTIGNVWAFDRGSSNITQRTPIVNIKDNTFTYTVPALTACHIVLEAAEP | soluble
MPRASISDTIPMTMASIDAGSVRFTARADKRHLNPLGGVHGGFAATVLDSVTGCAIHSILEAGVGYGTVDLSVKRVKAVPEDTPLVAEGRVLHVPCAIGSQRADLMLAPPRLGRDRRCPAGLEHHHHHH | not soluble
MGSDKIHHHHHHMKLIAVGDNVVDYYQDQETFYPGGNALNVAVLAKRLGHESSYIGIVGNDEAAAHLLNVLKLEQVNADYIRQAHGENGMAIVTLDEQGDRIFVRSNKGGIQSRLRLAFQEKDVSFISGHDLLHTSVYSRLENDLPQLCGLVPVSFDFSTNREDDYLRRVCPYVTYAFFSGSDLSESECGELAKTAHGYGAKMVCMTRGGQGAILSAGDRVYHQPIVEADIIDTLGAGDSFIAGFLTAFCVKQDITYALRQAAETAAKTCGVYGAFGYGYPYRLEDGGSSEKTRIL | not soluble
KPYTIDKANSSVWFEVKHFKFNETRGVFDSFDGKIDADPNTKALNVFEGKIDIKSINTRNKKRDDHLKTAEFFDVVKYPKGSFKMTKYEDGKIHGDLTLHGVTKPVVLEAKIQAPLQNPMNKKEFMVLQAEGKINRKDFGIGKTFSDAVVGDEVKIELKLEAYA | soluble
MKPTLFLLAAGMGSRYGGLKQLDGLGPNGETIMDYSIYDAINAGFGKLVFVIRKDFEQDFREKIISKYEGHIPCELVFQSIDDLPEGFTCPADRTKPWGTNHAVMMGADVISEPFAVINCDDFYGRDSFQVMGKFLSALPENSKNVYSMVGFRVGNTLSESGTVSRGICSTDANNLLTSVVERTKIQRLDGEVKYIDDNGEWTATPDTTPVSMNFWGFTPDYFAYSEEFFKTFLSDPKNMENLKSEFFIPLMVDKLINDGTATVEVLDTTSKWFGVTYPEDRQSVVDKIQALVDAGEYPAKLF | not soluble
MSSLKGKRIGFGLTGSHCTYEAVFPQIEELVNEGAEVRPVVTFNVKSTNTRFGEGAEWVKKIEDLTGYEAIDSIVKAEPLGPKLPLDCMVIAPLTGNSMSKLANAMTDSPVLMAAKATIRNNRPVVLGISTNDALGLNGTNLMRLMSTKNIFFIPFGQDDPFKKPNSMVAKMDLLPQTIEKALMHQQLQPILVENYQGNDLEHHHHHH | not soluble
MGSDKIHHHHHHMPNIIIIERDINYLKIFIKCMKESGFEVVCMNNTKLVSQVAQKQLPDLIICSLEIAKQNNCNFWNNLCQNFVTATIPLIFLINEASEIYQCPEFAADGYITKFCTTEELNKAIKAQLAKQAARKHGYAIQSQQVLNSPSIGNDQPNVQSILPSIPRLNLVFEFIAANYDKPISLCDVAEALGYSATYLTTVVTQTTGKSLQKWIIECRITAAQILLLQTDQSVNQIALKVGYENLAHFYRQFRDYHGTSPQVWREVEKSHNSHQLNKDKASLNSNNFGDFQ | not soluble
MLSYHTDIPTDLPLLRQAVEAIRREESGGAVPDSDRPRVIYEARNRLYAIRTAQGEQVVKSFRIPIAIQRVVYSFFRPSKAARSYRNAIRLGRCGIGTPRPSGYAIEREKGLLCRSYYVCESMHDCRDIRLSMQGVEGGEALLRALAGFIARMHRAGIHHIDLSPGNVLYRTDEKGEYSFYLIDLNRMKFYDKPIVGRKAYANFARLSFCPAVSKQLAEYYAEAQGLNTDGVVQGVQSESDRFFRSKVRKYARKALVREQKRMSRSAFRRAYIRYRSVRLIRKLTGCTRLFRIENDLYTSYLEVGDLRHTLKRAEGYSSPKNVQ | not soluble
MGSDKIHHHHHHMRKDEIMHIVSCADDNYARHLGGMFVSLLTNMDQEREVKLYVIDGGIKPDNKKRLEETTLKFGVPIEFLEVDTNMYEHAVESSHITKAAYYRISIPDLIKDESIKRMIYIDCDALVLEDISKLWDLDIAPYTVAAVEDAGQHERLKEMNVTDTGKYFNSGIMIIDFESWRKQNITEKVINFINEHPDEDFLVLHDQDALNAILYDQWYELHPRWNAQTYIMLKLKTPSTLLGRKQYNETRENPAIVHFCGGEKPWNSNTKHPYRDEYFHYMSYTKWNTIGNPAINQ | not soluble
MIMGLENLKPAKGSVKKIKRVGRGQGSGMGKTATRGGKGQTARTGYKAKRGFEGGQQPLQRRLPKIGFRTKDSHIYSINVEKNEAIKNLEEITFSSLRALHHFPLYIEGVKLIGKDAKNLASKIKDERIKTSGQKLEHHHHHH | soluble
MGHHHHHHSHMSVPRGPIAQWADGAISPNGHRPQLRAASGEDSTEEALAAAAAPWEGGPVPGVDTSPFAKSLGHSRGEADLFDSGDIFSTGTGSQSVERTKPKAKIAENPANPPVGGKAKSPMFPALGEASSDDDLFQSAKPKPAKKTNPFPLLEDEDDLFTDQKVKKNETKSSSQQDVILTTQDIFEDDIFATEAIKPSQKTREKEKTLESNLFDDNIDIFADLTVKPKEKSKKKVEAKSIFDDDMDDIFSTGIQAKTTKPKSRSAQAAPEPRFEHKVSNIFDDPLNAFGGQ | not soluble
MDTNITWHTASVSKDERRVKNGHHSFVIWFTGLSASGKSTVANAVARKLFEKNIGNYVLDGDNIRHGLNKDLGFSESDRMENIRRIGEVAKLFVDQGAVVLTAFISPFRVDRKQVRDLLAVDEFIEVFVKCPIEECEKRDPKGLYKKARKGDIKEFTGIDSPYEEPEKAELIVETHKYSIEECAEQIVKYLQERSLI | not soluble
MDVLPGRPRARRRRRRRQSRANILAIGVHLPRLRLSRGAMANALGWLSGGAGAGKGSRTLAYWDEDSVTMAVAAARHALARQAAPAIDALQFASTTPPFAEPQNAAFVRAALRLPATTLTQDVHGTPRAGLLALHMALESGTRTLVAAADLPTALPGSTAEARAGDGGAAVLTGDEPGLLRYLGGASLSAPFTDRYRAAGHDYPQEWEERWLREAGYLELVHDAIGRALQAASLRPEQVDHFVLPCPVPGVAAAVAAKAGLGQARLASALAENCGDTGAAHAFVMLGRALEDAAPGQKVLVAQFGQGATALLFEADEAVAGLAAPVSPALRDGLAEDNYMKLLAFRGRIAWDRGLRGRFLVNEALSTAWRNADALLDFVGGRCRETGQVQFPPTRLAATGGFHLDTQEPWPLADRGGRIATFTADLLAFSPCPPNCYGLVDIDGGGRVLMEFTDPQASQLEAGAAVAFALRIKDLDPQTGYRRYFWKALAAPTAD | not soluble
GPGSMSQLWVKRAKAEMTRHSRVLETINRVFPMPFEERRSRVGMTSYATYRWLRYFPVILVPVVVMGTLLETRDNPQEHVFTSLHLWLADHGVFRHDTVKALNPAFEDERRSIEWKANDRKWRFTGTDMPSEREIREFAAINIDHQSRRQL | soluble
MLRPLSKTDCPMLQEINAKALGYLVSLDLLERQYERLIEDCHHYFLAYADKDTNQLLGYVHAERYETLYASDGLNLLGLAVLPAYQRRGIGSALLRALESQARQEGIAFIRLNSASHRKEAHAFYRNLDYADDKTQLRFIKNLQGDDNDF | not soluble
MLIERIYDEDLAQASYFIGCQAHNTAVVVDPRRDIAVYLDMAKKNGMEIVGVTETHIHADYLSGTRELAAATNATMYVSGEGGADWQYEFDAERICDGSEIRLGNLVLTAVHTPGHTPEHLSFLLKDGAFADEPGFMLTGDFVFAGDLGRPDLLDEAAGGVDTRFEGARQMFKSLKEKFLTLPDHIQIFPGHGSGSACGKALGSVPSTTLGYERQFAWWGKYLEADDEQGFIDELLEGQPDAPAYFGRMKRQNRQGPAIMGARELLPQLEASDLHDVIVVDTRSADEVHQGTVAGAVNIPAGNSMAKFGSWTVDPEKDSRALVLLAASQIGAMEMWDHMVRVGIDNVAGFITNFDGVDLVAPQTVSPDQLDELEYDLLLDVRNRSEVEEGYIPGALHINGASVLWNLEKLPRDGKIVSYCKSGTRSSIAASTLRNAGFDVVELQGSYDNWVRHNAQLEHHHHHH | not soluble
MSLKKAIAYMRFSSPGQMSGDSLNRQRRLIAEWLKVNSDYYLDTITYEDLGLSAFKGKHAQSGAFSEFLDAIEHGYILPGTTLLVESLDRLSREKVGEAIERLKLILNHGIDVITLCDNTVYNIDSLNEPYSLIKAILIAQRANEESEIKSSRVKLSWKKKRQDALESGTIMTASCPRWLSLDDKRTAFVPDPDRVKTIELIFKLRMERRSLNAIAKYLNDHAVKNFSGKESAWGPSVIEKLLANKALIGICVPSYRARGKGISEIAGYYPRVISDDLFYAVQEIRLAPFGISNSEGHHHHHH | soluble
MGSDKIHHHHHHMFSDFKKDFCLANPGYLLSHSVGRPLKSTEQVFKEAFFAPWQDSGREPWGQWLSVIDDFTFALSKLFNGHQKDFCPQVNLSSALAKILMSLARLNREHAVVLMSEIDFPSMGFAIKKALPASCEVRFIPKTLDITDANVWDAHMGSDIDLVFVSHAYSNTGQQAPLANILAMARQYGCLSVVDVAQSAGIIPLNLAQLQPDFLIGSSVKWLCSGPGAAYLWVNPSIIDSCQPKDVGWFSHENPFEFNIHDFRYHNSALRFWGGTPSIAPYAIAAHSIHYFADIGVEQLRKGNQLLIDIVAEALDQEFVSPREIEKRSGTLVLQFGEQQGQIMAALAKANISVDARSMGIRISPHIYNDKADIQLLLSVIKAHR | not soluble
MGSDKIHHHHHHLRRLLNTLYVTTPDSYLAREGENILIRLEEKIVFRIPSHNIEAIVYFGYPGASPSLLGLCAEKGITVSFFSPNGRFLARVEGPQTGNVLLRRKQYRMADEENQVPVLAKYFIAAKILNSRAVLQRGRRDHPDKVGDSIERSIALLAGSVKKVFDSENLNDIRGLEGDAAQRYFSEVDNLILEQKQDFFMAARSRRPPLDNVNALLSFFYTLLVHECRAALESVGLDPAVGFLHRDRPGRPSLALDLMEELRPYLGDRMVLSLINRKQINKDDFITKENGAVYVLPDTRKMLLTVWQKRKQEEIIHPYLEEKIPIGLLPYTQALLLARFLRGDLDAYPAFIWK | not soluble

— the DeepSol protein solubility set
